Columns and labels:
IRE1α in TAP1 KO BMDCs = assay: IRE1α activation in TAP1-disrupted BMDCs (immunoblot); type: cell-based, mouse; conditions: CRISPR/Cas9 TAP1; ovalbumin 500 μg/ml, 4 h
Protocol: Figure 1. Antigen pulsing of BMDCs activates IRE1α. (A) BMDCs were pulsed with ovalbumin (starting at 62.5 μg/ml and sequentially doubled) and analyzed by immunoblot (IB) for the indicated markers. (B) BMDCs were pulsed with ovalbumin (starting at 500 μg/ml and sequentially halved) or […] (1 μM), or stimulated with tunicamycin (1 μg/ml) or poly-I:C (25 μg/ml) for 4 h, and analyzed by IB. (C) BMDCs were pulsed with ovalbumin (500 μg/ml) for indicated time points and analyzed by IB. (D) BMDCs were pulsed for 4 h with ovalbumin or lysates derived from the indicated cell lines (500 μg/ml protein) and analyzed by IB. […] (F) Upon removal from bone marrow, total bone marrow cells were transfected with non-targeting control (NTC) or TAP1-targeting gRNAs, along with CRISPR/Cas9 delivery constructs. Cells were then subjected to standard BMDC-differentiation protocol, pulsed with ovalbumin (500 μg/ml) for 4 h, and analyzed by IB. All IB images are representative of at least two similar experiments, and molecular weights represent kD. Source data are available for this figure: SourceData F1.
Cells were lysed in PBS solution supplemented with 1X radioimmunoprecipitation assay buffer (Millipore) and 2X Halt protease-phosphatase inhibitor cocktail (Thermo Fisher Scientific). […]

IRE1α LD-Fc = assay: Plate-based ovalbumin binding to IRE1α LD-Fc; set-up: species or system human; conditions: LD-Fc 10 μg/ml, 2 h, room temperature; in words
Protocol: For experiments testing ovalbumin binding, a human LD-Fc was used at indicated concentrations. LD-Fc is comprised of amino acids M1-D443 of IRE1α fused C-terminally to a linker ([…]) followed by the human IgG1 hinge and Fc portion. Ovalbumin (Sigma-Aldrich) was dissolved in sterile PBS and used in native state or denatured as indicated by incubation at 95°C buffer for 10 min.
For plate-based binding experiments, native or heat-denatured ovalbumin at indicated concentrations was bound to a flat-bottom 96-well plate (Corning Inc.) with coating buffer (BioLegend), washed with PBSt, blocked with 1% BSA in PBS, and subsequently incubated with IRE1α LD-Fc (10 μg/ml) in binding buffer composed of PBS with 20 mM Hepes, 100 mM KOAc, and 0.2% tween-20 for 2 h at room temperature. Plates were washed again with PBSt and incubated with an anti-human Fc HRP-conjugated antibody (ab977225; Abcam). Development was performed with 3,3′,5,5′-Tetramethylbenzidine solution and terminated with Stop solution (BioLegend). Readings were taken with a SpectraMax M2 spectrometer (Molecular Devices).

B1: ovalbumin: classical protein antigen ovalbumin (Sigma-Aldrich) (protein)
chain: MGSIGAASMEFCFDVFKELKVHHANENIFYCPIAIMSALAMVYLGAKDSTRTQINKVVRFDKLPGFGDSIEAQCGTSVNVHSSLRDILNQITKPNDVYSFSLASRLYAEERYPILPEYLQCVKELYRGGLEPINFQTAADQARELINSWVESQTNGIIRNVLQPSSVDSQTAMVLVNAIVFKGLWEKAFKDEDTQAMPFRVTEQESKPVQMMYQIGLFRVASMASEKMKILELPFASGTMSMLVLLPDEVSGLEQLESIINFEKLTEWTSSNVMEERKIKVYLPRMKMEEKYNLTSVLMAMGITDVFSSSANLSGISSAESLKISQAVHAAHAEINEAGREVVGSAEAGVDAASVSEEFRADHPFLFCIKHIATNAVLFFGRCVSP
IRE1α stimulation upon TAP1 disruption (IRE1α in TAP1 KO BMDCs): prevented IRE1α stimulation | binding to immobilized IRE1α LD-Fc (IRE1α LD-Fc): little binding over background

— publication PMC9036094, “Antigen-derived peptides engage the ER stress sensor IRE1α to curb dendritic cell cross-presentation” (The Journal of Cell Biology, 2022)
